The values below come from paper PMC11825483.

The nature of this data set: hepatic Ceacam1 mRNA and protein levels. The conditions noted are these: glycan changed form; control: Slc35c1 flox/flox mice.

B1: CEACAM1 (Ceacam1): Slc35c1 cKO (protein)
parent chain: MELASAHLHKGQVPWGGLLLTASLLASWSPATTAEVTIEAVPPQVAEDNNVLLLVHNLPLALGAFAWYKGNTTAIDKEIARFVPNSNMNFTGQAYSGREIIYSNGSLLFQMITMKDMGVYTLDMTDENYRRTQATVRFHVHQPVTQPFLQVTNTTVKELDSVTLTCLSNDIGANIQWLFNSQSLQLTERMTLSQNNSILRIDPIKREDAGEYQCEISNPVSVRRSNSIKLDIIFDPTQGGLSDGAIAGIVIGVVAGVALIAGLAYFLYSRKSGGGSDQRDLTEHKPSTSNHNLAPSDNSPNKVDDVAYTVLNFNSQQPNRPTSAPSSPRATETVYSEVKKK
Turning to B1, the expression_or_secretion entry is given as “no change”.
